The text below walks through data of US20250222068A1, “COMPOSITION FOR PREVENTING OR TREATING LUPUS COMPRISING RECOMBINANT STABILIZED GALECTIN-9 PROTEIN” (GBIOLOGICS INC., priority 2022, published 2025).

Assay [1] concerns MRL/FAS^lpr mice. The assay is described as follows: Clinical indicators (skin, lymphadenopathy, proteinuria scores) in an in vivo model of systemic lupus erythematosus. Conditions: 9 weeks; for reduction in skin lesions compared to positive control (Mycophenolate) / skin lesions (skin score) compared to negative control (Vehicle): FIG. 2; for inhibitory effect on lymphadenopathy compared to positive control (Mycophenolate) / lymphadenopathy score compared to negative control (Vehicle): FIG. 3; for proteinuria compared to negative control (Vehicle): FIG. 4. The text has this: Specifically, the occurrence and severity of lupus were regularly observed from group allocation to the end of the experiment in the experimental animals from <1-1> and evaluated according to the criteria shown in [Table 2].

The test system of assay [2] is MRL/FAS^lpr mice. The assay is described as follows: Spleen weight in an in vivo model of systemic lupus erythematosus. Conditions: sGal-9 2 mg/kg SC once per week, 9 weeks, FIG. 5. From the text: Additionally, after the completion of the experiment, the experimental animals from <1-1> were sacrificed, and the spleens were extracted for weight measurement.
A further assay has as its system anti-dsDNA antibodies. In words: Plasma anti-dsDNA antibody levels (ELISA) in an in vivo model of systemic lupus erythematosus. Details: species or system mice. The settings on record: 9 weeks, FIG. 8. Here is the method:
Anti-dsDNA antibodies are a type of antinuclear antibody (ANA) that target intracellular nuclear components and are present at high titers in systemic lupus erythematosus (SLE). These antibodies are associated with the persistent progression of kidney inflammation and damage.
Specifically, after the completion of the experiment, cardiac blood collection was performed on the experimental animals from <1-1>. The collected blood was allowed to coagulate for 30 minutes using a capillary blood collection tube (Cat. 365967, BD) and then centrifuged at 6,000×g for 10 minutes to obtain plasma. The obtained plasma was diluted at a ratio of 1:2,500, and the concentration of anti-dsDNA antibodies was measured using a Mouse Anti-dsDNA IgG Antibody ELISA Kit (Cat. 3031, Chondrex) according to the manufacturer's protocol.

The test system of assay [3] is MRL/FAS^lpr mice. The assay is described as follows: Histomorphological evaluation of renal tissue (H&E staining). The assay is classed as in vivo. The settings on record: 9 weeks, FIG. 6; for inflammatory cell infiltration within the glomeruli: H&E. From the text:
Specifically, after the completion of the experiment, the experimental animals of <1-1> were sacrificed, and renal tissues were collected. The collected renal tissues were fixed and dehydrated in 10% formaldehyde and subsequently embedded in paraffin. The fixed renal tissues were sectioned to a thickness of 2 μm and stained with hematoxylin and eosin (H&E). The sectioned tissues were covered with a coverslip and observed under an optical microscope at 400× magnification. Four regions were imaged for each tissue, and two or more researchers assigned scores based on the evaluation items and criteria for histomorphological assessment shown in [Table 3]. The average of the researchers' scores was determined as the scoring value, and the mean of the scoring values for the four regions was calculated as the final score for each tissue.

For assay [4], the system named is MRL/FAS^lpr mice. The assay is described as follows: IgG immunofluorescence staining of renal tissue. Conditions: 9 weeks, FIG. 7. It is filed as in vivo. As for the experimental part:
Additionally, the collected kidney tissues were frozen, sectioned at a thickness of 4 μm, and fixed in cold acetone for 5 minutes, followed by two washes with phosphate-buffered saline (PBS) for 5 minutes each. To eliminate non-specific reactions, blocking was performed for 30 minutes using a PBS solution containing 1% bovine serum albumin and 0.05% Tween-20. The sections were then incubated at room temperature for 1 hour with FITC-conjugated goat anti-mouse IgG antibody (1:200, AP308F, Merck Millipore). After three washes with PBS for 5 minutes each, nuclear staining was performed using DAPI, and the sections were covered with a cover glass using mounting medium. The samples were then examined using a confocal laser scanning microscope (C2 Plus, Nikon). […] Furthermore, it was confirmed that the glomerular lesion scores decreased in the positive control group (Mycophenolate) and the sGal-9 treatment groups (sGal-9 2 mg/kg and sGal-9 4 mg/kg) compared to the negative control group (Vehicle).

[5] abbreviates: sGal-9 2 mg/kg SC once per week.
[6] abbreviates: sGal-9 4 mg/kg SC once per week.

B1: sGal-9: recombinant stabilized galectin-9 protein of Sequence No. 1: linker entirely deleted, CCRD positions 1 to 10 deleted, alanine 13 substituted with proline (protein)
chain: MAFSGSQAPYLSPAVPFSGTIQGGLQDGLQITVNGTVLSSSGTRFAVNFQTGFSGNDIAFHFNPRFEDGGYVVCNTRQNGSWGPEERKTHMPFQKGMPFDLCFLVQSSDFKVMVNGILFVQYFHRVPFHRVDTISVNGSVQLSYISFQHPPYPMPFITTILGGLYPSKSILLSGTVLPSAQRFHINLCSGNHIAFHLNPRFDENAVVRNTQIDNSWGSEERSLPRKMPFVRGQSFSVWILCEAHCLKVAVDGQHLFEYYHRLRNLPTINRLEVGGDIQLTHVQT
modifications: sGal-9
Consider B1, for which, in the assay with MRL/FAS^lpr mice [1] (setting [5]), the “reduction in skin lesions compared to positive control (Mycophenolate)” value is recorded as “more pronounced”, the “skin lesions (skin score) compared to negative control (Vehicle)” value was “reduced”, the “inhibitory effect on lymphadenopathy compared to positive control (Mycophenolate)” value was “more pronounced” and the “lymphadenopathy score compared to negative control (Vehicle)” value was “decreased”. The “proteinuria compared to negative control (Vehicle)” value with MRL/FAS^lpr mice [1] (setting [5]) is reported as “decreased”. For the same molecule, in the assay on MRL/FAS^lpr mice [1] (setting [6]), the “reduction in skin lesions compared to positive control (Mycophenolate)” value is reported as “more pronounced”, the “skin lesions (skin score) compared to negative control (Vehicle)” value is on record as “reduced”, the “inhibitory effect on lymphadenopathy compared to positive control (Mycophenolate)” value is “more pronounced” and the “lymphadenopathy score compared to negative control (Vehicle)” value is listed as “decreased”. Moreover, in the assay with MRL/FAS^lpr mice [1] (setting [6]), the “proteinuria compared to negative control (Vehicle)” value is “decreased”. Moreover, in the assay on MRL/FAS^lpr mice [2], the “spleen weight compared to negative control (Vehicle)” value is listed as “decreased”. The “concentration of anti-dsDNA antibodies in plasma compared to negative control (Vehicle)” value in the assay with anti-dsDNA antibodies (setting [5]) is “decreased”. Further, in the assay on anti-dsDNA antibodies (setting [6]), the “concentration of anti-dsDNA antibodies in plasma compared to negative control (Vehicle)” value is given as “decreased” and the “reduction in anti-dsDNA antibody levels compared to positive control (Mycophenolate)” value was “superior reduction”. For the same molecule, in the assay on MRL/FAS^lpr mice [3] (setting [5]), the “glomerular lesion scores compared to negative control (Vehicle)” value is “decreased” and the “inflammatory cell infiltration within the glomeruli” value is given as “reduction”. Besides, in the assay on MRL/FAS^lpr mice [3] (setting [6]), the “glomerular lesion scores compared to negative control (Vehicle)” value is reported as “decreased” and the “inflammatory cell infiltration within the glomeruli” value is “reduction”. For the same molecule, the “IgG deposition in the kidney compared to negative control (Vehicle)” value in the assay on MRL/FAS^lpr mice [4] (setting [5]) is given as “decreased”. The “IgG deposition in the kidney compared to negative control (Vehicle)” value in the assay on MRL/FAS^lpr mice [4] (setting [6]) is reported as “decreased”.
